Measured values as given in paper PMC9463443.

Target: CCANdeltaCT (CENP-LN, CENP-HIKM, CENP-OPQUR; no CENP-C, no CENP-TWSX) (Homo sapiens, UniProt Q8N0S6;Q96H22;Q9H3R5;Q92674;Q9BS16;Q9NSP4;Q9BU64;Q6IPU0;Q7L2Z9;Q71F23;Q13352 …)
Assay: EMSA; 300 mM NaCl; EMSA: 20 mM HEPES-Na pH 7.5, 300 mM NaCl, 0.5 mM TCEP, 10 min on ice, 1% agarose in 0.5x TAE; SEC: Superose 6 (analytical SEC buffer not given in the material)
Conditions: protein: recombinant; tags: His6 C-term on CENP-N and CENP-Q; copies: 1;1;1;1;1;1;1;1;1;1;1; blunt

B1: 147 bp DNA (Widom 601) (dsDNA)
DNA 1: ATCGAGAATCCCGGTGCCGAGGCCGCTCAATTGGTCGTAGACAGCTCTAGCACCGCTTAAACGCACGTACGCGCTGTCCCCCGCGTTTTAACCGCCAAGGGGATTACTCCCTAGTCTCCAGGCACGTGTCACATATATACATCCGAT
DNA 2: ATCGGATGTATATATGTGACACGTGCCTGGAGACTAGGGAGTAATCCCCTTGGCGGTTAAAACGCGGGGGACAGCGCGTACGTGCGTTTAAGCGGTGCTAGAGCTGTCTACGACCAATTGAGCGGCCTCGGCACCGGGATTCTCGAT
B1: binds.
